This is an account of results in article PMC9481563, “Structural insights into the pSer/pThr dependent regulation of the SHP2 tyrosine phosphatase in insulin and CD28 signaling” (Nature Communications, 2022).

Assay in all cases: fluorescence polarisation; competitive titration: labelled CF-ppIRS1 and protein both fixed (50-80% saturation), unlabelled competitor peptide varied; triplicates; Kd from cubic fit
Details in all cases: both partners purified

The target of experiment [1] is T1, PIK3R1 (p85) C-terminal SH2 domain (614-724) (human, UniProt P27986 614-724).
T1 construct: PIK3R1 regulatory subunit of PI3K (p85), cSH2 domain, cloned from a HEK293T cDNA pool, UniProt P27986, residues 614-724; also called cSH2; PI3KR1 cSH2; source: E. coli BL21 (DE3), purified (Ni-NTA, anion exchange)
T1 sequence (P27986 614-724): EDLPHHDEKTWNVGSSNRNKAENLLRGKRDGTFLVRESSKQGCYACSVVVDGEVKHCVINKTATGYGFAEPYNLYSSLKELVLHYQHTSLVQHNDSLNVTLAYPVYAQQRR

The target in experiment [2] is T2, PIK3R1 (p85) N-terminal SH2 domain (321-433) (human, UniProt P27986 321-433).
T2 construct: PIK3R1 regulatory subunit of PI3K (p85), nSH2 domain, cloned from a HEK293T cDNA pool, UniProt P27986, residues 321-433; also called nSH2; PI3KR1 nSH2; source: E. coli BL21 (DE3), purified (Ni-NTA, anion exchange)
T2 sequence (P27986 321-433): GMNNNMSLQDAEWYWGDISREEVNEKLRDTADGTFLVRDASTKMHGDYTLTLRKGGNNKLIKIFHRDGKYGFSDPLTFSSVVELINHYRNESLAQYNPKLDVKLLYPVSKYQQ

Experiment [3] has as its target T3, PTPRε first catalytic domain, inactive C335S mutant (107-399), MBP-tagged (human, UniProt P23469 107-399, C335S).
T3 construct: PTPRε receptor tyrosine phosphatase, first phosphatase domain, cloned from a HEK293T cDNA pool, UniProt P23469, residues 107-399; first cloned into pBH4 (N-terminal His6); also called receptor tyrosine phosphatase PTPRε; source: E. coli BL21 (DE3), purified (Ni-NTA, anion exchange)

Where no end group is shown, it is not given here. [ ]: non-standard residue; d: D form. pY = N[C@@H](Cc1ccc(OP(=O)(O)O)cc1)C(=O)O; pT = C[C@@H](OP(=O)(O)O)[C@H](N)C(=O)O; pS = N[C@@H](COP(=O)(O)O)C(=O)O

T3 sequence (P23469 107-399 C335S): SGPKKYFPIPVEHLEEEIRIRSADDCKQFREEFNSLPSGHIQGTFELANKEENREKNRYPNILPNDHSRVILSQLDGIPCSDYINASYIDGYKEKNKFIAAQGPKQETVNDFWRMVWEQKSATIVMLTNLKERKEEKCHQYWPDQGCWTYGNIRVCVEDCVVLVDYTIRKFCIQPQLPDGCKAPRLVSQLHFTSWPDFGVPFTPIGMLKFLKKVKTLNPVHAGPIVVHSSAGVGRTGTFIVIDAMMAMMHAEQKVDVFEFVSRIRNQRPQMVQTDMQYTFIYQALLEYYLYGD

B1: p0IRS1, IRS1 peptide with phosphotyrosine only (pY632) (peptide)
peptide: GRKGSGD[pY]MPMSPKS
notes: human IRS1, 2nd YxxMSP motif around Y632, 15 amino acids; also called singly phosphorylated model peptide; pTyr peptide; source: synthetic peptide, bought: GeneScript Inc
As to B1, the binding result in experiment [1] and in experiment [2] was “binds” each time.

B2: ppIRS1, IRS1 peptide dually phosphorylated (pY632 + pS636) (peptide)
peptide: GRKGSGD[pY]MPM[pS]PKS
notes: human IRS1, 2nd YxxMSP motif around Y632, 15 amino acids; also called pY632-pS636 peptide; dually phosphorylated model peptide; source: synthetic peptide, bought: GeneScript Inc
Consider B2, for which the binding result in experiment [1] and in experiment [2] was “binds” in each case.

B3: ppCD28, CD28 peptide dually phosphorylated (pY191 + pT195) (peptide)
peptide: RSRLLHSD[pY]MNM[pT]PRR
notes: human CD28 T-cell costimulatory receptor, cytoplasmic YMNMTP motif, 16 amino acids; also called pY191-pT195 peptide; source: synthetic peptide, bought: GeneScript Inc
Regarding B3, the binding result in experiment [1], in experiment [2] and in experiment [3] was “binds” in each case.

B4: p0CD28, CD28 peptide with phosphotyrosine only (pY191) (peptide)
peptide: RSRLLHSD[pY]MNMTPRR
notes: human CD28 T-cell costimulatory receptor, cytoplasmic YMNMTP motif, 16 amino acids; also called singly Tyr phosphorylated CD28 peptide; source: synthetic peptide, bought: GeneScript Inc
As for B4, the binding result in experiment [1], in experiment [2] and in experiment [3] was “binds” in each case.
